B1: YY1 consensus DNA element (YY1C) (dsDNA)
DNA 1: CTAGGCGCTCCCCGGCCATCTTGGCGGCTGGT
DNA 2: ACCAGCCGCCAAGATGGCCGGGGAGCGCCTAG

Molecular target: SpYY1 (recombinant) (Strongylocentrotus purpuratus, UniProt A0A7M7RHL1 1-400)
Experiment: EMSA; 250 nM protein, 10 nM probe; 50 mM NaCl, 50 mM Tris-HCl pH 7.5, 2 mM MgCl2, 1 mM DTT, 5% glycerol, room temperature 20 min; 10 nM probe; recombinant protein 0.5 uM (Methods) or 250 nM (Fig. 4 legend); lysate reactions with poly-dIdC (DNA) or yeast tRNA (RNA)
Conditions: tags: His tag and EK site from pRSetB (text says C-terminal)

SpYY1 (recombinant), sequence (A0A7M7RHL1 entry or part of it): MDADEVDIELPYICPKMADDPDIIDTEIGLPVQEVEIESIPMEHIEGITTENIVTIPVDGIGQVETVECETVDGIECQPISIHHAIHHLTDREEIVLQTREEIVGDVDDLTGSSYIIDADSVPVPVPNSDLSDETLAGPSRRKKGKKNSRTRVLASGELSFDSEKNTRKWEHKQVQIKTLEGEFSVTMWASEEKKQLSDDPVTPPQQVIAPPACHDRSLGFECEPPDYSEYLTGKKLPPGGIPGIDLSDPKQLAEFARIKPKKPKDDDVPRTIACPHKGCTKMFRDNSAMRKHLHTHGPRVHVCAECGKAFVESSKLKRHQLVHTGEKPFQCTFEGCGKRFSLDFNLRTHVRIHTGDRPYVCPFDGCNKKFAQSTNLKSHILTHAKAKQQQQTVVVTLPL

Binder | binding result (label: 5'-32P when probe, single strand) | binding result (label: 32P end-fill when probe)
UUUUUUUUUUUUUUUUUUUU (ssRNA) [U(20) RNA] | binds | 
B1 |  | binds
